Among the data in publication PMC9140718 are stoichiometry N values, retold here.

In assay [1] the target is recombinant variant feline factor XI (fFXI-M516) (feline (Felis catus)). The experiment in a line: SDS-PAGE under non-reducing and reducing conditions; purified FXI on a 7.5% polyacrylamide gel, Coomassie blue stained; homodimer unreduced, monomer reduced.
For assay [2], the target named is plasma FXI of Maine Coon cats homozygous for wild-type FXI (feline (endogenous in Maine Coon cat plasma)). The assay is described as follows: non-reducing SDS-PAGE with Western blot; citrated plasma (1 µL) on non-reducing 7.5% polyacrylamide gels; detected with biotinylated IgG 14E11 and streptavidin-horseradish peroxidase.
Assay [3] concerns the target recombinant wild-type human factor XI (hFXI-V516) (human). The experiment in a line: SDS-PAGE under non-reducing and reducing conditions; purified FXI on a 7.5% polyacrylamide gel, Coomassie blue stained; homodimer unreduced, monomer reduced.
Assay [4] addresses plasma-derived human FXI (pFXI) (human). The assay is described as above.
Assay [5] addresses plasma FXI of Maine Coon cats homozygous for the M516 variant (feline (endogenous in Maine Coon cat plasma)). The assay is described as follows: non-reducing SDS-PAGE with Western blot; citrated plasma (1 µL) on non-reducing 7.5% polyacrylamide gels; detected with biotinylated IgG 14E11 and streptavidin-horseradish peroxidase. (In general: In western blotting, separated proteins are transferred to a membrane and probed.)

Assay [6] has as its target recombinant wild-type feline factor XI (fFXI-V516) (feline (Felis catus)). The experiment in a line: SDS-PAGE under non-reducing and reducing conditions; purified FXI on a 7.5% polyacrylamide gel, Coomassie blue stained; homodimer unreduced, monomer reduced.

As for “recombinant variant feline factor XI (fFXI-M516) (natural protein)”, in assay [1], the stoichiometry N (in general, the number of molecules, sites or subunits per partner or assembly) worked out at 2.
Regarding “plasma FXI of Maine Coon cats homozygous for wild-type FXI (natural protein)”, the stoichiometry N in assay [2] was determined as 2.
For “recombinant wild-type human factor XI (hFXI-V516) (natural protein)”, the stoichiometry N in assay [3] amounted to 2.
“plasma-derived human FXI (pFXI) (natural protein)” returned a stoichiometry N in assay [4] of 2.
“plasma FXI of Maine Coon cats homozygous for the M516 variant (natural protein)”: the stoichiometry N in assay [5] worked out at 2.
“recombinant wild-type feline factor XI (fFXI-V516) (natural protein)”: the stoichiometry N in assay [6] was 2.
